Test results taken from US20250361268A1, “NOVEL ANTI-INFLAMMATORY PEPTIDE AND USE THEREOF” (NOVACELL TECHNOLOGY INC., priority 2022, published 2025).

B1: peptide of SEQ ID NO 113 (peptide)
peptide: MKYWPM
HELM: PEPTIDE1{M.K.Y.W.P.[dM].[am]}$$$$V2.0; N-terminus assumed
SMILES: CSCC[C@H](N)C(=O)N[C@@H](CCCCN)C(=O)N[C@@H](Cc1ccc(O)cc1)C(=O)N[C@@H](Cc1c[nH]c2ccccc12)C(=O)N1CCC[C@H]1C(=O)N[C@H](CCSC)C(N)=O
B2: peptide of SEQ ID NO 111 (peptide)
peptide: MRYWPM
HELM: PEPTIDE1{[ac].M.R.Y.W.P.[dM].[am]}$$$$V2.0
SMILES: CSCC[C@H](NC(C)=O)C(=O)N[C@@H](CCCNC(=N)N)C(=O)N[C@@H](Cc1ccc(O)cc1)C(=O)N[C@@H](Cc1c[nH]c2ccccc12)C(=O)N1CCC[C@H]1C(=O)N[C@H](CCSC)C(N)=O
B3: peptide of SEQ ID NO 117 (peptide)
peptide: RWRYWPM
HELM: PEPTIDE1{[ac].R.W.R.Y.W.P.[dM].[am]}$$$$V2.0
SMILES: CSCC[C@@H](NC(=O)[C@@H]1CCCN1C(=O)[C@H](Cc1c[nH]c2ccccc12)NC(=O)[C@H](Cc1ccc(O)cc1)NC(=O)[C@H](CCCNC(=N)N)NC(=O)[C@H](Cc1c[nH]c2ccccc12)NC(=O)[C@H](CCCNC(=N)N)NC(C)=O)C(N)=O
B4: peptide of SEQ ID NO 97 (peptide)
peptide: RMRYYVM
HELM: PEPTIDE1{R.M.R.Y.Y.V.[dM].[am]}$$$$V2.0; N-terminus assumed
SMILES: CSCC[C@H](NC(=O)[C@@H](N)CCCNC(=N)N)C(=O)N[C@@H](CCCNC(=N)N)C(=O)N[C@@H](Cc1ccc(O)cc1)C(=O)N[C@@H](Cc1ccc(O)cc1)C(=O)N[C@H](C(=O)N[C@H](CCSC)C(N)=O)C(C)C
B5: peptide of SEQ ID NO 98 (peptide)
peptide: RMRYYVM
HELM: PEPTIDE1{[ac].R.M.R.Y.Y.V.[dM].[am]}$$$$V2.0
SMILES: CSCC[C@H](NC(=O)[C@H](CCCNC(=N)N)NC(C)=O)C(=O)N[C@@H](CCCNC(=N)N)C(=O)N[C@@H](Cc1ccc(O)cc1)C(=O)N[C@@H](Cc1ccc(O)cc1)C(=O)N[C@H](C(=O)N[C@H](CCSC)C(N)=O)C(C)C
B6: peptide of SEQ ID NO 108 (peptide)
peptide: RMRYWPM
HELM: PEPTIDE1{[CCCC(=O)[*:2]].R.M.R.Y.W.P.[dM].[am]}$$$$V2.0
SMILES: CCCC(=O)N[C@@H](CCCNC(=N)N)C(=O)N[C@@H](CCSC)C(=O)N[C@@H](CCCNC(=N)N)C(=O)N[C@@H](Cc1ccc(O)cc1)C(=O)N[C@@H](Cc1c[nH]c2ccccc12)C(=O)N1CCC[C@H]1C(=O)N[C@H](CCSC)C(N)=O
B7: peptide of SEQ ID NO 104 (peptide)
peptide: RMRYWVM
HELM: PEPTIDE1{[ac].R.M.R.Y.W.V.[dM].[am]}$$$$V2.0
SMILES: CSCC[C@H](NC(=O)[C@H](CCCNC(=N)N)NC(C)=O)C(=O)N[C@@H](CCCNC(=N)N)C(=O)N[C@@H](Cc1ccc(O)cc1)C(=O)N[C@@H](Cc1c[nH]c2ccccc12)C(=O)N[C@H](C(=O)N[C@H](CCSC)C(N)=O)C(C)C
B8: peptide of SEQ ID NO 114 (peptide)
peptide: MKYWPM
HELM: PEPTIDE1{[ac].M.K.Y.W.P.[dM].[am]}$$$$V2.0
SMILES: CSCC[C@H](NC(C)=O)C(=O)N[C@@H](CCCCN)C(=O)N[C@@H](Cc1ccc(O)cc1)C(=O)N[C@@H](Cc1c[nH]c2ccccc12)C(=O)N1CCC[C@H]1C(=O)N[C@H](CCSC)C(N)=O
B9: peptide of SEQ ID NO 115 (peptide)
peptide: MKYWPM
HELM: PEPTIDE1{[CCCC(=O)[*:2]].M.K.Y.W.P.[dM].[am]}$$$$V2.0
SMILES: CCCC(=O)N[C@@H](CCSC)C(=O)N[C@@H](CCCCN)C(=O)N[C@@H](Cc1ccc(O)cc1)C(=O)N[C@@H](Cc1c[nH]c2ccccc12)C(=O)N1CCC[C@H]1C(=O)N[C@H](CCSC)C(N)=O
B10: peptide of SEQ ID NO 107 (peptide)
peptide: RMRYWPM
HELM: PEPTIDE1{[ac].R.M.R.Y.W.P.[dM].[am]}$$$$V2.0
SMILES: CSCC[C@H](NC(=O)[C@H](CCCNC(=N)N)NC(C)=O)C(=O)N[C@@H](CCCNC(=N)N)C(=O)N[C@@H](Cc1ccc(O)cc1)C(=O)N[C@@H](Cc1c[nH]c2ccccc12)C(=O)N1CCC[C@H]1C(=O)N[C@H](CCSC)C(N)=O
B11: peptide of SEQ ID NO 93 (peptide)
peptide: HMRYWYM
HELM: PEPTIDE1{[CCCC(=O)[*:2]].H.M.R.Y.W.Y.[dM].[am]}$$$$V2.0
SMILES: CCCC(=O)N[C@@H](Cc1c[nH]cn1)C(=O)N[C@@H](CCSC)C(=O)N[C@@H](CCCNC(=N)N)C(=O)N[C@@H](Cc1ccc(O)cc1)C(=O)N[C@@H](Cc1c[nH]c2ccccc12)C(=O)N[C@@H](Cc1ccc(O)cc1)C(=O)N[C@H](CCSC)C(N)=O
B12: peptide of SEQ ID NO 100 (peptide)
peptide: MRYYVM
HELM: PEPTIDE1{M.R.Y.Y.V.[dM].[am]}$$$$V2.0; N-terminus assumed
SMILES: CSCC[C@H](N)C(=O)N[C@@H](CCCNC(=N)N)C(=O)N[C@@H](Cc1ccc(O)cc1)C(=O)N[C@@H](Cc1ccc(O)cc1)C(=O)N[C@H](C(=O)N[C@H](CCSC)C(N)=O)C(C)C
B13: peptide of SEQ ID NO 101 (peptide)
peptide: RWRYWVM
HELM: PEPTIDE1{R.W.R.Y.W.V.[dM].[am]}$$$$V2.0; N-terminus assumed
SMILES: CSCC[C@@H](NC(=O)[C@@H](NC(=O)[C@H](Cc1c[nH]c2ccccc12)NC(=O)[C@H](Cc1ccc(O)cc1)NC(=O)[C@H](CCCNC(=N)N)NC(=O)[C@H](Cc1c[nH]c2ccccc12)NC(=O)[C@@H](N)CCCNC(=N)N)C(C)C)C(N)=O
B14: peptide of SEQ ID NO 94 (peptide)
peptide: RWRYYVM
HELM: PEPTIDE1{R.W.R.Y.Y.V.[dM].[am]}$$$$V2.0; N-terminus assumed
SMILES: CSCC[C@@H](NC(=O)[C@@H](NC(=O)[C@H](Cc1ccc(O)cc1)NC(=O)[C@H](Cc1ccc(O)cc1)NC(=O)[C@H](CCCNC(=N)N)NC(=O)[C@H](Cc1c[nH]c2ccccc12)NC(=O)[C@@H](N)CCCNC(=N)N)C(C)C)C(N)=O
B15: peptide of SEQ ID NO 106 (peptide)
peptide: RMRYWPM
HELM: PEPTIDE1{R.M.R.Y.W.P.[dM].[am]}$$$$V2.0; N-terminus assumed
SMILES: CSCC[C@H](NC(=O)[C@@H](N)CCCNC(=N)N)C(=O)N[C@@H](CCCNC(=N)N)C(=O)N[C@@H](Cc1ccc(O)cc1)C(=O)N[C@@H](Cc1c[nH]c2ccccc12)C(=O)N1CCC[C@H]1C(=O)N[C@H](CCSC)C(N)=O
B16: peptide of SEQ ID NO 110 (peptide)
peptide: MRYWPM
HELM: PEPTIDE1{M.R.Y.W.P.[dM].[am]}$$$$V2.0; N-terminus assumed
SMILES: CSCC[C@H](N)C(=O)N[C@@H](CCCNC(=N)N)C(=O)N[C@@H](Cc1ccc(O)cc1)C(=O)N[C@@H](Cc1c[nH]c2ccccc12)C(=O)N1CCC[C@H]1C(=O)N[C@H](CCSC)C(N)=O
B17: peptide of SEQ ID NO 96 (peptide)
peptide: KWKYYVM
HELM: PEPTIDE1{K.W.K.Y.Y.V.[dM].[am]}$$$$V2.0; N-terminus assumed
SMILES: CSCC[C@@H](NC(=O)[C@@H](NC(=O)[C@H](Cc1ccc(O)cc1)NC(=O)[C@H](Cc1ccc(O)cc1)NC(=O)[C@H](CCCCN)NC(=O)[C@H](Cc1c[nH]c2ccccc12)NC(=O)[C@@H](N)CCCCN)C(C)C)C(N)=O
B18: peptide of SEQ ID NO 105 (peptide)
peptide: MRYWVM
HELM: PEPTIDE1{[ac].M.R.Y.W.V.[dM].[am]}$$$$V2.0
SMILES: CSCC[C@H](NC(C)=O)C(=O)N[C@@H](CCCNC(=N)N)C(=O)N[C@@H](Cc1ccc(O)cc1)C(=O)N[C@@H](Cc1c[nH]c2ccccc12)C(=O)N[C@H](C(=O)N[C@H](CCSC)C(N)=O)C(C)C
B19: peptide of SEQ ID NO 112 (peptide)
peptide: MRYWPM
HELM: PEPTIDE1{[CCCC(=O)[*:2]].M.R.Y.W.P.[dM].[am]}$$$$V2.0
SMILES: CCCC(=O)N[C@@H](CCSC)C(=O)N[C@@H](CCCNC(=N)N)C(=O)N[C@@H](Cc1ccc(O)cc1)C(=O)N[C@@H](Cc1c[nH]c2ccccc12)C(=O)N1CCC[C@H]1C(=O)N[C@H](CCSC)C(N)=O
B20: peptide of SEQ ID NO 109 (peptide)
peptide: RMRYWPM
HELM: PEPTIDE1{[CCCCCCCC(=O)[*:2]].R.M.R.Y.W.P.[dM].[am]}$$$$V2.0
SMILES: CCCCCCCC(=O)N[C@@H](CCCNC(=N)N)C(=O)N[C@@H](CCSC)C(=O)N[C@@H](CCCNC(=N)N)C(=O)N[C@@H](Cc1ccc(O)cc1)C(=O)N[C@@H](Cc1c[nH]c2ccccc12)C(=O)N1CCC[C@H]1C(=O)N[C@H](CCSC)C(N)=O
B21: peptide of SEQ ID NO 102 (peptide)
peptide: WRYWVM
HELM: PEPTIDE1{[ac].W.R.Y.W.V.[dM].[am]}$$$$V2.0
SMILES: CSCC[C@@H](NC(=O)[C@@H](NC(=O)[C@H](Cc1c[nH]c2ccccc12)NC(=O)[C@H](Cc1ccc(O)cc1)NC(=O)[C@H](CCCNC(=N)N)NC(=O)[C@H](Cc1c[nH]c2ccccc12)NC(C)=O)C(C)C)C(N)=O

Target: T1, formyl peptide receptor 2 (FPR2) (UniProt P25090 1-351, limits assumed)
T1 sequence (looked up): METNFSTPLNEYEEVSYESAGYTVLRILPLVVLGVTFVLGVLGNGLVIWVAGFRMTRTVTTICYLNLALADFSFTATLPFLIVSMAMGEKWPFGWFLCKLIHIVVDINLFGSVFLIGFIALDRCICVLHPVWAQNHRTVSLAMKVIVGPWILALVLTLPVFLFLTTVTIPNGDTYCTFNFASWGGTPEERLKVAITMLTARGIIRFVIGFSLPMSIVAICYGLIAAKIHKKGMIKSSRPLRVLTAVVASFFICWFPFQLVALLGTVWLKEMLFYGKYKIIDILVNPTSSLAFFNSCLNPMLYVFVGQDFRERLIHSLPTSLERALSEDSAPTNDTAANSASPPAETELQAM
Experiment: cell-based or functional assay

EC50 for [Ca2+], < 10 nM:
B1
B2
B3
B4
B5
B6
B7
B8
B9
B10
B11
B12
B13
B14
B15
B16
B17
B18
B19
B20
B21
